The test addresses T1, human HLA-A2.1 on T2 cells (human).
T1 construct: whole, on cells; Empty or peptide-receptive HLA-A2.1 on TAP-deficient T2 cells; also called HLA-A*0201; class I MHC molecules
The experiment in a line: T2 binding assay (HLA-A2 on T2 cells, flow cytometry).

B1: Glypican-3 136-145 (SLTPQAFEFV) (peptide)
peptide: SLTPQAFEFV
notes: Synthetic 10 mer of human glypican-3 (NP-004475); also called GPC3 136-145; GPC3136-145
With B1, the binding result was “binds”.

The record behind these values is US20130217122A1, “Expansion of Interferon-Gamma-Producing T-Cells Using Glypican-3 Peptide Library” (The Trustees of the University of Pennsylvania, priority 2012, published 2013).
